18 variants from the RNAGym collection of RNA variant scans (doi:10.1021/acssynbio.7b00057) can be followed below.

To fix the notation:
B1: Pistol ribozyme (parent)
chain: GGGUCGUUGUUCCAUAAUCGCGUGGAUAUGGCACGCAAGUUUCUACCGGGCACCGUAAAUGUCCGACUGGAGCCGUUCGGGCGGCUAUAAACAGACCUCAGGCCCGAAGCGUGGCGGCACCUGCCGCCGGUGGUAAAAAAGAUCGGAAGAGCACACGUCU

The variants in this data set derive from B1. In words: aptazyme ON/OFF ratio, guanine; higher = stronger switching; co-transcriptional cleavage with and without guanine.
As for GGGUCGGGUAGUUAUAAUCGCGUGGAUAUGGCACGCAAGUUUCUACCGGGCACCGUAAAUGUCCGACUGGAGCCGUUCGGGCGGCUAUAAACAGACCUCAGGCCCGAAGCGUGGCGGCACCUGCCGCCGGUGGUAAAAAAGAUCGGAAGAGCACACGUCU [U7G U8G G9U U10A U11G C12U C13U], the “aptazyme ON/OFF ratio” value came out at 1.08.

In the case of GGGUCGGGUAGUGAUAAUCGCGUGGAUAUGGCACGCAAGUUUCUACCGGGCACCGUAAAUGUCCGACUGGAGCCGUUCGGGCGGCUAUAAACAGACCUCAGGCCCGAAGCGUGGCGGCACCUGCCGCCGGUGGUAAAAAAGAUCGGAAGAGCACACGUCU [U7G U8G G9U U10A U11G C12U C13G], the “aptazyme ON/OFF ratio” value came out at 1.11.

Consider GGGUCGGGUCUCCAUAAUCGCGUGGAUAUGGCACGCAAGUUUCUACCGGGCACCGUAAAUGUCCGACUGGAGCCGUUCGGGCGGCUAUAAACAGACCUCAGGCCCGAAGCGUGGCGGCACCUGCCGCCGGUGGUAAAAAAGAUCGGAAGAGCACACGUCU [U7G U8G G9U U10C], for which the “aptazyme ON/OFF ratio” value came to 1.51.

On to GGGUCGGGUCUGCAUAAUCGCGUGGAUAUGGCACGCAAGUUUCUACCGGGCACCGUAAAUGUCCGACUGGAGCCGUUCGGGCGGCUAUAAACAGACCUCAGGCCCGAAGCGUGGCGGCACCUGCCGCCGGUGGUAAAAAAGAUCGGAAGAGCACACGUCU [U7G U8G G9U U10C C12G], for which the “aptazyme ON/OFF ratio” value turned out to be 1.22.

On to GGGUCGGGUCUUCAUAAUCGCGUGGAUAUGGCACGCAAGUUUCUACCGGGCACCGUAAAUGUCCGACUGGAGCCGUUCGGGCGGCUAUAAACAGACCUCAGGCCCGAAGCGUGGCGGCACCUGCCGCCGGUGGUAAAAAAGAUCGGAAGAGCACACGUCU [U7G U8G G9U U10C C12U], for which the “aptazyme ON/OFF ratio” value turned out to be 1.28.

For GGGUCGGGUCUACAUAAUCGCGUGGAUAUGGCACGCAAGUUUCUACCGGGCACCGUAAAUGUCCGACUGGAGCCGUUCGGGCGGCUAUAAACAGACCUCAGGCCCGAAGCGUGGCGGCACCUGCCGCCGGUGGUAAAAAAGAUCGGAAGAGCACACGUCU [U7G U8G G9U U10C C12A], the “aptazyme ON/OFF ratio” value came to 1.38.

Turning to GGGUCGGGUCUAGAUAAUCGCGUGGAUAUGGCACGCAAGUUUCUACCGGGCACCGUAAAUGUCCGACUGGAGCCGUUCGGGCGGCUAUAAACAGACCUCAGGCCCGAAGCGUGGCGGCACCUGCCGCCGGUGGUAAAAAAGAUCGGAAGAGCACACGUCU [U7G U8G G9U U10C C12A C13G], the “aptazyme ON/OFF ratio” value stood at 1.29.

Turning to GGGUCGGGUCUAAAUAAUCGCGUGGAUAUGGCACGCAAGUUUCUACCGGGCACCGUAAAUGUCCGACUGGAGCCGUUCGGGCGGCUAUAAACAGACCUCAGGCCCGAAGCGUGGCGGCACCUGCCGCCGGUGGUAAAAAAGAUCGGAAGAGCACACGUCU [U7G U8G G9U U10C C12A C13A], the “aptazyme ON/OFF ratio” value came out at 1.31.

On to GGGUCGGGUCUAUAUAAUCGCGUGGAUAUGGCACGCAAGUUUCUACCGGGCACCGUAAAUGUCCGACUGGAGCCGUUCGGGCGGCUAUAAACAGACCUCAGGCCCGAAGCGUGGCGGCACCUGCCGCCGGUGGUAAAAAAGAUCGGAAGAGCACACGUCU [U7G U8G G9U U10C C12A C13U], for which the “aptazyme ON/OFF ratio” value was determined as 1.4.

As to GGGUCGGGUAGCUAUAAUCGCGUGGAUAUGGCACGCAAGUUUCUACCGGGCACCGUAAAUGUCCGACUGGAGCCGUUCGGGCGGCUAUAAACAGACCUCAGGCCCGAAGCGUGGCGGCACCUGCCGCCGGUGGUAAAAAAGAUCGGAAGAGCACACGUCU [U7G U8G G9U U10A U11G C13U], the “aptazyme ON/OFF ratio” value was 1.12.

Turning to GGGUCGGGUAGCGAUAAUCGCGUGGAUAUGGCACGCAAGUUUCUACCGGGCACCGUAAAUGUCCGACUGGAGCCGUUCGGGCGGCUAUAAACAGACCUCAGGCCCGAAGCGUGGCGGCACCUGCCGCCGGUGGUAAAAAAGAUCGGAAGAGCACACGUCU [U7G U8G G9U U10A U11G C13G], the “aptazyme ON/OFF ratio” value was found to be 1.13.

For the variant GGGUCGGGUAGCAAUAAUCGCGUGGAUAUGGCACGCAAGUUUCUACCGGGCACCGUAAAUGUCCGACUGGAGCCGUUCGGGCGGCUAUAAACAGACCUCAGGCCCGAAGCGUGGCGGCACCUGCCGCCGGUGGUAAAAAAGAUCGGAAGAGCACACGUCU [U7G U8G G9U U10A U11G C13A], the “aptazyme ON/OFF ratio” value is 1.07.

Regarding GGGUCGGGUCUUGAUAAUCGCGUGGAUAUGGCACGCAAGUUUCUACCGGGCACCGUAAAUGUCCGACUGGAGCCGUUCGGGCGGCUAUAAACAGACCUCAGGCCCGAAGCGUGGCGGCACCUGCCGCCGGUGGUAAAAAAGAUCGGAAGAGCACACGUCU [U7G U8G G9U U10C C12U C13G], the “aptazyme ON/OFF ratio” value came out at 1.36.

On to GGGUCGGGUCUUAAUAAUCGCGUGGAUAUGGCACGCAAGUUUCUACCGGGCACCGUAAAUGUCCGACUGGAGCCGUUCGGGCGGCUAUAAACAGACCUCAGGCCCGAAGCGUGGCGGCACCUGCCGCCGGUGGUAAAAAAGAUCGGAAGAGCACACGUCU [U7G U8G G9U U10C C12U C13A], for which the “aptazyme ON/OFF ratio” value was determined as 1.22.

Regarding GGGUCGGGUCUUUAUAAUCGCGUGGAUAUGGCACGCAAGUUUCUACCGGGCACCGUAAAUGUCCGACUGGAGCCGUUCGGGCGGCUAUAAACAGACCUCAGGCCCGAAGCGUGGCGGCACCUGCCGCCGGUGGUAAAAAAGAUCGGAAGAGCACACGUCU [U7G U8G G9U U10C C12U C13U], the “aptazyme ON/OFF ratio” value was found to be 1.35.

For the variant GGGUCGGGUCUGAAUAAUCGCGUGGAUAUGGCACGCAAGUUUCUACCGGGCACCGUAAAUGUCCGACUGGAGCCGUUCGGGCGGCUAUAAACAGACCUCAGGCCCGAAGCGUGGCGGCACCUGCCGCCGGUGGUAAAAAAGAUCGGAAGAGCACACGUCU [U7G U8G G9U U10C C12G C13A], the “aptazyme ON/OFF ratio” value was determined as 1.24.

As to GGGUCGGGUCUGUAUAAUCGCGUGGAUAUGGCACGCAAGUUUCUACCGGGCACCGUAAAUGUCCGACUGGAGCCGUUCGGGCGGCUAUAAACAGACCUCAGGCCCGAAGCGUGGCGGCACCUGCCGCCGGUGGUAAAAAAGAUCGGAAGAGCACACGUCU [U7G U8G G9U U10C C12G C13U], the “aptazyme ON/OFF ratio” value worked out at 1.25.

For the variant GGGUCGGGUCUGGAUAAUCGCGUGGAUAUGGCACGCAAGUUUCUACCGGGCACCGUAAAUGUCCGACUGGAGCCGUUCGGGCGGCUAUAAACAGACCUCAGGCCCGAAGCGUGGCGGCACCUGCCGCCGGUGGUAAAAAAGAUCGGAAGAGCACACGUCU [U7G U8G G9U U10C C12G C13G], the “aptazyme ON/OFF ratio” value amounted to 1.1.
